Data set [1] deals with T1, FIP200 claw domain K1569A (Homo sapiens, UniProt Q8TDY2, K1569A).
T1 construct: human FIP200 claw domain1490–1594 was cloned; SUMO (N, cleaved yes); made in house; host or cells: Escherichia coli Rosetta (DE3)
The experiment in a line: ITC with FIP200 claw domain mutant K1569A. Conditions: 20 °C, buffer B pH 7.0, N.D. = no detectable binding. As for the experimental part: (§1) DNA fragment of human FIP200 claw domain1490–1594 was cloned into a modified pET28a (Novagen) plasmid, which contained an N-terminal SUMO-tag and a ULP1 protease cleavage site. All mutants were generated using a MutanBEST Kit (TaKaRa) and confirmed by DNA sequencing. The proteins were expressed in Escherichia coli Rosetta (DE3) cells (Novagen) cultured in LB medium at 37 °C to A600 = 1.0 and then shifted to 16 °C for 24 h after induction with 0.2 mM IPTG. Bacterial pellets were resuspended in buffer A (50 mM NaH2PO4 and 1 M NaCl, pH 7.0) and lysed by sonication. The crude lysate was then centrifuged at 14,000 rpm for 30 min at 4 °C. The supernatant was applied to a Ni-NTA column (QIAGEN), followed by size-exclusion chromatography using a Superdex 200 (GE Healthcare) column. After cleavage with ULP1 protease overnight at 16 °C to remove the SUMO-tag, an additional purification step was performed with a HiTrap SP FF column. The purified protein was concentrated to ∼20 mg/ml in buffer B (50 mM NaH2PO4, 150 mM NaCl, pH 7.0) and stored at −80 °C.
(§2) ITC assays were performed on a Microcal PEAQ-ITC instrument (Malvern) at 20 °C. The concentrations of proteins were determined spectrophotometrically. […] Thermodynamic data were analyzed with a single binding site model using MicroCal PEAQ-ITC Analysis Software provided by the manufacturer (Malvern).

Data set [2] has as its target T2, FIP200 claw domain F1574A (Homo sapiens, UniProt Q8TDY2, F1574A).
T2 construct: human FIP200 claw domain1490–1594 was cloned; SUMO (N, cleaved yes); made in house; host or cells: Escherichia coli Rosetta (DE3)
The experiment in a line: ITC with FIP200 claw domain mutant F1574A. The conditions noted are these: 20 °C, buffer B pH 7.0, N.D. = no detectable binding. As for the experimental part: as §1, §2

Data set [3] concerns the target T3, FIP200 claw domain K1568A (Homo sapiens, UniProt Q8TDY2, K1568A).
T3 construct: human FIP200 claw domain1490–1594 was cloned; SUMO (N, cleaved yes); made in house; host or cells: Escherichia coli Rosetta (DE3)
Kind of data set: ITC with FIP200 claw domain mutant K1568A. Conditions: 20 °C, buffer B pH 7.0, fitted value ± error. The class given is binding. As for the experimental part: as §1, §2

Data set [4] deals with T4, FIP200 claw domain Y1564A (Homo sapiens, UniProt Q8TDY2, Y1564A).
T4 construct: human FIP200 claw domain1490–1594 was cloned; SUMO (N, cleaved yes); made in house; host or cells: Escherichia coli Rosetta (DE3)
T4 sequence (Q8TDY2 1490-1594 Y1564A): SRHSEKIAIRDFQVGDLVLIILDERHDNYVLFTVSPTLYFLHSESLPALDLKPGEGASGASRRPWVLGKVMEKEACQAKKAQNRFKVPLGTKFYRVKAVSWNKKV
Kind of data set: ITC with FIP200 claw domain mutant Y1564A. Conditions: 20 °C, buffer B pH 7.0, N.D. = no detectable binding. As to the method:
as §1, §2

Data set [5] addresses T5, FIP200 claw domain R1573E (Homo sapiens, UniProt Q8TDY2, R1573E).
T5 construct: human FIP200 claw domain1490–1594 was cloned; SUMO (N, cleaved yes); made in house; host or cells: Escherichia coli Rosetta (DE3)
Kind of data set: ITC with FIP200 claw domain mutant R1573E. The conditions noted are these: 20 °C, buffer B pH 7.0, N.D. = no detectable binding. As to the method:
as §1, §2

Data set [6] deals with T6, FIP200 claw domain F1582A (Homo sapiens, UniProt Q8TDY2, F1582A).
T6 construct: human FIP200 claw domain1490–1594 was cloned; SUMO (N, cleaved yes); made in house; host or cells: Escherichia coli Rosetta (DE3)
T6 sequence (Q8TDY2 1490-1594 F1582A): as the sequence (Q8TDY2 1490-1594 Y1564A) above, with A75Y, F93A counted along it
Kind of data set: ITC with FIP200 claw domain mutant F1582A. Conditions: 20 °C, buffer B pH 7.0, N.D. = no detectable binding. As for the experimental part:
as §1, §2

A further data set has as its target TNIP1_pS123 peptide. The experiment in a line: ITC.
Data set [7] concerns FIP200 claw domain / p-CCPG1 FIR2 complex. Kind of data set: Competitive fluorescence polarization: displacement of FITC-pCCPG1 FIR2 from FIP200 claw domain. Format: binding, human. The conditions noted are these: fit of Equation 3 to competitive FP data; FIP200 claw 4 μM, 50 nM FITC-pCCPG1 FIR2, buffer B, triplicate. The source says: Next, we investigated the binding of TNIP1 peptides to FIP200 in distinct states while competing with p-CCPG1 FIR2 peptide. Assuming that in solution, there is a thermodynamic equilibrium as expressed in Equation 1:(1) FIP200−TNIP1_pS123⇆w2u2FIP200⇄w1u1FIP200/p−CCPG1FIR2 where u1 and u2 represent the rates of forming the FIP200/p-CCPG1 FIR2 and FIP200-TNIP1_pS123 binding complexes, respectively, and w1 or w2 is the corresponding dissociation rate, then the probability of forming FIP200/p-CCPG1 FIR2 ( P1 ) can be expressed in the following form:(2) P1=u1w2/w1w2+u1w2+[…]
We further assumed that the binding process is diffusion-controlled, meaning that u1 and u2 are proportional to the concentrations of p-CCPG1 FIR2 and TNIP1_pS123, respectively. In addition, w1 and w2 are determined by the activation barrier in the dissociation free energy profile using the transition state theory. Consequently, the following two relations hold. […]
For competitive FP experiments, FIP200 claw domain at 4 μM and 50 nM FITC-pCCPG1 FIR2 in buffer B were mixed with increasing concentrations of unlabeled TNIP1_FIR^long or TNIP1 FIR_pS123^long peptides, respectively. The samples were measured with the CLARIOsta plate reader with FITC-fluorescence polarization filter set. […]
For orientation: Polarisation of emitted light reports the rotation of a fluorescent probe.

Another data set deals with T7, FIP200 claw domain (WT) (Homo sapiens, UniProt Q8TDY2).
T7 construct: human FIP200 claw domain1490–1594 was cloned; SUMO (N, cleaved yes); made in house; host or cells: Escherichia coli Rosetta (DE3)
The experiment in a line: ITC of TNIP1/CCPG1 FIR peptides with FIP200 claw domain WT. Conditions: FIP200 claw WT 0.25 mM, peptide 4 mM, 20 °C, buffer B (50 mM NaH2PO4, 150 mM NaCl, pH 7.0), single binding site model, fitted value ± SD, N.D. = no detectable binding. As for the experimental part:
as §1, §2

Data set [8] concerns the molecule itself. The experiment in a line: crystal structure; FIP200 claw and TNIP1 FIR peptide mixed at a 1:5 molar ratio, 15 mg/ml; vapor diffusion at 16 °C or 20 °C; molecular replacement.
The target of data set [9] is T8, FIP200 claw domain (1490-1594) (human, UniProt Q8TDY2 1490-1594).
T8 construct: the ITC N counts peptide per claw chain; also called FIP200 claw domain WT; WT; source: E. coli Rosetta (DE3), purified (Ni-NTA, Superdex 200, HiTrap SP FF); not shown: SUMO, N-terminal, cleaved
The experiment in a line: ITC; peptide (4 mM) injected into FIP200 claw protein (0.25 mM); 20 °C; buffer B (50 mM NaH2PO4, 150 mM NaCl, pH 7.0); single binding site model. On the technique in general: Isothermal titration calorimetry measures the heat released or taken up as one component is titrated into another.

In data set [10] the target is T9, human FIP200 claw domain (1490-1594) (human, UniProt Q8TDY2 1490-1594).
T9 chain: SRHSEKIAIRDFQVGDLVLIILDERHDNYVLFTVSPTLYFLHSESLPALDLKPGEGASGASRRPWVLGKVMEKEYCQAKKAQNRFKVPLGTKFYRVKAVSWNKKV
Kind of data set: ITC.

The target of data set [11] is T10, FIP200 claw domain (1490-1594) Q1566A (human, UniProt Q8TDY2 1490-1594, Q1566A).
T10 construct: source: E. coli Rosetta (DE3), purified (Ni-NTA, Superdex 200, HiTrap SP FF); not shown: SUMO, N-terminal, cleaved
Kind of data set: ITC; peptide (4 mM) injected into FIP200 claw protein (0.25 mM); 20 °C; buffer B (50 mM NaH2PO4, 150 mM NaCl, pH 7.0); single binding site model. Conditions: both partners purified.

For data set [12], the target named is T11, FIP200 claw domain (1490-1594) D1516A (human, UniProt Q8TDY2 1490-1594, D1516A).
T11 construct: source: E. coli Rosetta (DE3), purified (Ni-NTA, Superdex 200, HiTrap SP FF); not shown: SUMO, N-terminal, cleaved
The data set is described as above. Conditions: both partners purified.

Data set [13] deals with T12, FIP200 claw domain (1490-1594) R1514A (human, UniProt Q8TDY2 1490-1594, R1514A).
T12 construct: source: E. coli Rosetta (DE3), purified (Ni-NTA, Superdex 200, HiTrap SP FF); not shown: SUMO, N-terminal, cleaved
The data set is described as above. The conditions noted are these: both partners purified.

Data set [14] deals with T13, FIP200 claw domain (1490-1594) K1568A (human, UniProt Q8TDY2 1490-1594, K1568A).
T13 construct: source: E. coli Rosetta (DE3), purified (Ni-NTA, Superdex 200, HiTrap SP FF); not shown: SUMO, N-terminal, cleaved
Described as above. The conditions noted are these: both partners purified.

This note sets out measurements from article PMC11367644, “Structural basis for TNIP1 binding to FIP200 during mitophagy” (The Journal of Biological Chemistry, 2024).

The term Kd denotes the free concentration of one partner at which half of the binding sites on the other are occupied at equilibrium, for simple one-to-one binding. Lower therefore signals a tighter complex. Broadly, the stoichiometry N is a count of units in the complex or per binding partner.

Where two headings read alike, the source gives them in different places. Square brackets hold non-standard residues; d marks the D form. Ends that are not written are not given here. Peptide text beside a SMILES is read from it. pS = N[C@@H](COP(=O)(O)O)C(=O)O

T5 sequence (Q8TDY2 1490-1594 R1573E): as the sequence (Q8TDY2 1490-1594 Y1564A) above, with A75Y, R84E counted along it
T3 sequence (Q8TDY2 1490-1594 K1568A): as the sequence (Q8TDY2 1490-1594 Y1564A) above, with A75Y, K79A counted along it
T1 sequence (Q8TDY2 1490-1594 K1569A): as the sequence (Q8TDY2 1490-1594 Y1564A) above, with A75Y, K80A counted along it
T2 sequence (Q8TDY2 1490-1594 F1574A): as the sequence (Q8TDY2 1490-1594 Y1564A) above, with A75Y, F85A counted along it

Regarding `CC(C)[C@H](NC(=O)[C@@H](NC(=O)[C@H](CCC(=O)O)NC(=O)[C@H](Cc1ccccc1)NC(=O)[C@H](CCC(=O)O)NC(=O)[C@H](COP(=O)(O)O)NC(=O)[C@H](CO)NC(=O)[C@@H](NC(=O)CNC(=O)[C@H](CO)NC(=O)[C@@H](N)CO)[C@@H](C)O)C(C)C)C(=O)O` [TNIP1_pS123] (H-SSGTS[pS]EFEVV-OH), the KD entry in data set [1] is “significantly abolished”; in data set [2], “significantly abolished”; in [3], “Weak binding”; in data set [4], “significantly abolished”; in [5], “significantly abolished”; in data set [6] it was “significantly abolished”.
Consider “human FIP200 claw domain (1490-1594) (from UniProt Q8TDY2) Q1566A”, for which the ratio to parent in the data set with TNIP1_pS123 peptide amounted to 0.79.
Take “SSGTSSEFEVVTPEEQ [TNIP1^long, unmodified TNIP1 FIR peptide with an elongated C terminus]”: the “a0 (constant of Equation 3, y1 = 1/(1+a0[TNIP1]))” value in data set [7] worked out at 0.0006 µM⁻¹. Besides, at FIP200 claw domain (WT), the KD result is listed as “Weak binding”.
Take SSGTSSEFEVV [TNIP1]: at FIP200 claw domain (WT), the KD result is “no detectable binding affinity”.

B1: human FIP200 claw domain (1490-1594) (domain or fragment, UniProt Q8TDY2 1490-1594, looked up)
chain: SRHSEKIAIRDFQVGDLVLIILDERHDNYVLFTVSPTLYFLHSESLPALDLKPGEGASGASRRPWVLGKVMEKEYCQAKKAQNRFKVPLGTKFYRVKAVSWNKKV
notes: Forms a homodimer in the crystals; source: E. coli Rosetta (DE3), purified (Ni-NTA, Superdex 200, HiTrap SP FF); not shown: SUMO, N-terminal, cleaved
Consider B1, for which the binding result in data set [8] is reported as “binds”.

B2: CCPG1 FIR2 peptide (unmodified) (peptide)
peptide: TASDDSDIVTLEPPK
notes: FIR2 motif of the autophagy receptor CCPG1; source: synthetic peptide (GL Biochem, Shanghai)
In the case of B2, in data set [9] (both partners purified), the Kd is 84.3 µM and the “stoichiometry N” value turned out to be 0.96.

B3: pCCPG1 FIR2 peptide (peptide)
peptide: TASDD[pS]DIVTLEPPK
notes: as for B2
With B3, in data set [9] (both partners purified), the affinity, expressed as Kd, was 9.3 µM and the “stoichiometry N” value came to 1.1.

B4: TNIP1_pS122pS123 peptide (peptide)
chain: SSGT[pS][pS]EFEVV
As for B4, the stoichiometry N in data set [9] amounted to 1.33. The same molecule showed a Kd in data set [10] of 195 µM.

B5: TNIP1_pS123 peptide (peptide)
peptide: SSGTS[pS]EFEVV
notes: FIR motif of TNIP1; source: synthetic peptide (GL Biochem, Shanghai)
As for B5, the Kd turned out to be 126 µM in data set [11], 175 µM in data set [12], 178 µM in data set [13] and 160 µM in data set [10]. Moreover, the “stoichiometry N” value turned out to be 1.49 in data set [11], 1.18 in data set [12], 1.48 in [13] and 1.01 in data set [9].

B6: TNIP1_pS122 peptide (peptide)
chain: SSGT[pS]SEFEVV
B6 showed a stoichiometry N in data set [9] of 0.96. Further, binding in data set [10] was put at a Kd of 260 µM.

B7: TNIP1_pS123^long peptide (peptide)
peptide: SSGTS[pS]EFEVVTPEEQ
notes: FIR motif of TNIP1 with an elongated C terminus (T129-Q133); source: synthetic peptide (GL Biochem, Shanghai)
With B7, the Kd was determined as 133 µM in data set [14]; 45 µM in data set [11]; 35 µM in data set [12]; 43.8 µM in [13]; 45.4 µM in [9] (both partners purified). The “stoichiometry N” value in [14] came to 0.93; in [11] it was 0.96; in data set [12], 0.98; in data set [13], 0.97; in data set [9] (both partners purified) it was 1.03.
